Consider eight molecules from patent US20220089784A1 (University of California, published 2022).

B1: 4C1 scFv (scFv, V domains shown)
VH: QVQLQESGPGLVKPSQTLSLTCAVSGGSINSGDYYWTWIRQHPGKGLEWIGNIYYTGRTYYNPSLQSRLTMSVDTSRTHFSLKLSAVTAADTAVYYCARGQDTSMVTRNFYYGLDVWGQGTTVTVSS
VL: DIVMTQSPSFVSASVGDRVTITCRASQGISSYLAWYQQKPGKAPKLLIYAASTLQSGVPSRFSGSGSGTDFTLTISSLQPEDIATYYCQELSSYPLTFGGGTKLEIK
notes: human
B2: 4C3 scFv (scFv, V domains shown)
VH: EVQLVQSGAEVKKPGSSVKVSCKASGNSLNNYAITWVRQAPGQGLEWMGGINPLFGTANYAQKFQDRVTMTADESTNIAYLDLSSLTTADTAVYFCAVGAFTNYPFWGQGTTVTVSS
VL: SGLTQDPAVSEALGQTVRITCQGDSLRSYYASWYQQKPGQAPLLVIYAGNNRPSGIPDRFSGSSSGNTASLTITGARAEDEADYYCNSRDSSGNYLFGAGTKLTVL
notes: human
B3: 4C5 scFv (scFv, V domains shown)
VH: QVQLVQSGADVKKPGASVRVSCKASGYTISTYAMSWVRQAPGQGLEWMGWISGYNGNTNYAQEFQGRVTMTRDTSTNTAYMELRSLRSDDTAFYYCARVKLTTMVRGGPFDYWGQGTLVTVSS
VL: EIVLTQSPSSLSATVGDRVTITCRASQGIRNDLVWYQQKPGKAPKRLTYAASSLLSGVPSRFSGSGSGTDFTLTISSLQPEDFATYYCQQYNSYPPTFGGGTKLEIK
notes: human
B4: 4C8 scFv (scFv, V domains shown)
VH: QVQLVESGGGLVQPGRSLRLSCAASGLTLSNYWMNWVRQAPGKGLEWVANIHQDGVEKYYVDSVKGRFTISRDNAKNSLYLQMSSLRAEDTAVYYCARGGKYSNSSAMYQWGQGTLVTVSS
VL: DIVMTQSPSSLAASVGDRVTITCRASQSISGYLNWYQQKPGKAPNLLIYAASSLQSGVPSRFSGSGSGTDFTLTISSLQPDDFASYYCQQSYDIPRTFGQGTKVEIK
notes: human
B5: 4C9 scFv (scFv, V domains shown)
VH: QVQLVESGAEVKKPGASVKVSCTASGYTFAGYYMDWVRQAPGQGLEWMGRINPKSGDPNYEQKFQGRVTLTRDKSINTVYMELSRLKSDDTAIYYCARSVSGGAFDLWGRGTLVTVSS
VL: DIVMTQSPSSLSASVGDRVTITCRASQSINSYLNWYQQKPGKVPRLLIYSASSLQSGVPSRFSGSGSGTDFTLTISSLQPDDFATYYCQQYKRYSSFGQGTKVEIK
notes: human
B6: 87C78 scFv (scFv, V domains shown)
VH: QVQLQESGGGVVQPGKSLRLSCVTSTFTLGTYAMHWVRQAPGKGLQWVAVISYDGRYADYADSVKGRFNISRDNSKNTLYLQMHSLTTEDTALYYCAKAIKAFRPVPPSFHMDVWGIGTTVTVSS
VL: DIVMTQSPSSLSASVGDRVTITCRASQGISSYLAWYQQKPGKAPQLLIYKASILKSGVPSRFSGSGSGTEFTLTISSLQPEDFATYFCQQTFDTPLTFGQGTKVEIK
notes: human
B7: 6F10 IgG (antibody, V domains shown)
VH: EVQLQESGGDLVKPGGSLKLSCAASGFTFSYYGMSWVRQTPDKRLEWVATISSGGTYTYYPDSVKGRFTISRDNAKNTLYLQMSSLSSEDTAMYYCARRRSYDSVYWYFDVWGAGTSVTVSS
VL: DIVLTQSPAITAASLGQKVTITCSASSSGSYIHWYQQKSGTSPKLLIYRTSNLASGVPSRFSGSGSGTFYSLTISSVEAEDAADYFCHQWSSYPTFGGGTKLEIK
notes: IgG from scFv V genes
B8: 6F9 IgG (antibody, V domains shown)
VH: QVQLQQPGAELVKPGASVKLSCKASGNSFASSWMHWVKQRPGQGLEWIGMIHPYSGSTNFNEKFKSKATLSVDKSSSTAYMQLSSLTSEDSAVYYCAMNWDWYFDVWGTGTTVTVSA
VL: DVVMTQSPKFMSTSVGDRVSITCKASQDVGTAVAWYQQKPGQSPKLLIYWASTRHTGVPDRFTGSGSGTDFTLTISDVLSEDLADYFCQQYGGYPTFGGGTKLEIK
notes: IgG from scFv V genes

The target of the first assay is T1, BoNT/C1 holotoxin (Clostridium botulinum, UniProt P18640 2-1291).
T1 sequence: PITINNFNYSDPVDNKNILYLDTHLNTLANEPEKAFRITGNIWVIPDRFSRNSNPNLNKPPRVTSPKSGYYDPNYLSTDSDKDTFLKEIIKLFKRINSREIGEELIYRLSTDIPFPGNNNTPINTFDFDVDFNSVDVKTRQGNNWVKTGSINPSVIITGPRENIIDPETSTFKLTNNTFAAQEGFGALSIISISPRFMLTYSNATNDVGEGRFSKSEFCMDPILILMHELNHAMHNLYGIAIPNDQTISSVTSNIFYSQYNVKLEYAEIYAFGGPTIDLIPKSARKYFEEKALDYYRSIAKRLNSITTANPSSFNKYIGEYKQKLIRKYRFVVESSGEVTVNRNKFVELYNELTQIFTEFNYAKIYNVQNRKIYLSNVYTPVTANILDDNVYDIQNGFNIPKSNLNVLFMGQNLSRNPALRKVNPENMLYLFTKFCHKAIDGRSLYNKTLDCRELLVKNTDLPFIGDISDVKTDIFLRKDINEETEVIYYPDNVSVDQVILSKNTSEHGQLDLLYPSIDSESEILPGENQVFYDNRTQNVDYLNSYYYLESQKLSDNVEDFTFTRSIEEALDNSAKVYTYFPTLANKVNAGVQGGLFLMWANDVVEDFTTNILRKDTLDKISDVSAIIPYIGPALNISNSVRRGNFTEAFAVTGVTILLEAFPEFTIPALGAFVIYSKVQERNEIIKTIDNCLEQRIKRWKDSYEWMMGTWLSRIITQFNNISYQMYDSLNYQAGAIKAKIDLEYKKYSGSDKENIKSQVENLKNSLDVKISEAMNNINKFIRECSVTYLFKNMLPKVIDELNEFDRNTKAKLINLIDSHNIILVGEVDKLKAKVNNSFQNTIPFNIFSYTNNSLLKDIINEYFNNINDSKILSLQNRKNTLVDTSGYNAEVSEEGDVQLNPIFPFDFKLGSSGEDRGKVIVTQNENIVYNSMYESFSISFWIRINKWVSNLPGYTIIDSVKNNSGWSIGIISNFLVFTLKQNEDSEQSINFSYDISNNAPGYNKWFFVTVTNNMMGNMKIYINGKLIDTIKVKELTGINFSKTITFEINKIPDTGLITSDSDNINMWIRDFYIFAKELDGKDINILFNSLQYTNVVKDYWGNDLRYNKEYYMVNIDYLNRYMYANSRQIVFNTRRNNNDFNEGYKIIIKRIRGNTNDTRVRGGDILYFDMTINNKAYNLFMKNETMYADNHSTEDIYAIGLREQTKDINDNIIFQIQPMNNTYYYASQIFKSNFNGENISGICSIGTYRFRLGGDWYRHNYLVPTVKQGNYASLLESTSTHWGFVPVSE
As to the kind of experiment: yeast scFv FACS.
For the molecule B1, the equilibrium dissociation constant (Kd) (commonly the concentration at which binding is half-saturated) is 2.7 nM. This lies in the single-digit nanomolar range. Still for that read-out and setting: as for B2, the figure is 4.7 nM; as for B3, 0.143 nM. Same read-out and setting: with B4 the figure was 51.1 nM; with B5, 29.6 nM. The same measure, in the same setting: with B6 the figure was 1 nM.

The target in another assay is T2, BoNT/D (Clostridium botulinum, UniProt P19321 2-1276).
T2 sequence: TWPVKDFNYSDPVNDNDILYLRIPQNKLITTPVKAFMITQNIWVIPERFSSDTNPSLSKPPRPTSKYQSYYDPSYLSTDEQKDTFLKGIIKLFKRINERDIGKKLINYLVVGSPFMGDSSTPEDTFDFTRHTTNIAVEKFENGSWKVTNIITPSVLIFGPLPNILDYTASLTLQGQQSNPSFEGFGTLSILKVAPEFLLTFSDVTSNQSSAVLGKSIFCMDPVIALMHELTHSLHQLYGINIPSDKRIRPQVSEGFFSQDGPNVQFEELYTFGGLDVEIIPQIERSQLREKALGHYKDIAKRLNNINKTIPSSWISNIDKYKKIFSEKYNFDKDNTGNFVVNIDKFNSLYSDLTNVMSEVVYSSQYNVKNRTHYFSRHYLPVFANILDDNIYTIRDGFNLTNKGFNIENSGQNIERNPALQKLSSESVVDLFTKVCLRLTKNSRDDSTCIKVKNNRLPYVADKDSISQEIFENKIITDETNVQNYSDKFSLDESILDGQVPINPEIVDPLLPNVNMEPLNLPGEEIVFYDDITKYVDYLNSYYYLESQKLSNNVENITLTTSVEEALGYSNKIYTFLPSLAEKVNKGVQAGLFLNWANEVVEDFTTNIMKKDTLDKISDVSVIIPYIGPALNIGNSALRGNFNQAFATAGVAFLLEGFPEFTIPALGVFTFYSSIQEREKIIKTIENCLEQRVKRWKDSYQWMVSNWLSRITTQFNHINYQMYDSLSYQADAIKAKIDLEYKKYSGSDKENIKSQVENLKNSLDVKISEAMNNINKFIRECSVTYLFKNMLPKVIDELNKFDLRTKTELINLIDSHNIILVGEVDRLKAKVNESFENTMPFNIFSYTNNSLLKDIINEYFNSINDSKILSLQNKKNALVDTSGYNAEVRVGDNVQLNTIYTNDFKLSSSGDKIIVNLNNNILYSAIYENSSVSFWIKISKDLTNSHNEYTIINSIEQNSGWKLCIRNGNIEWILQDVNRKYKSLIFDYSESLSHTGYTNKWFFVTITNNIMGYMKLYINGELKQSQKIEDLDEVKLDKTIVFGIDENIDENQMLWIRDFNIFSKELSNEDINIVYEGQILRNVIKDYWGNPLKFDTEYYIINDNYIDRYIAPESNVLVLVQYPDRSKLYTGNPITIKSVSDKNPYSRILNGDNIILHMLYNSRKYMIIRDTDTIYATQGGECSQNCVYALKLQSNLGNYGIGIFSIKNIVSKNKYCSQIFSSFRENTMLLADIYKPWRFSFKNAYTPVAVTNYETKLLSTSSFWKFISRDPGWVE
As to the kind of experiment: yeast scFv FACS.
On to B1, for which the binding result is on record as “no binding (tested: ~1 µM)”.

B2: the binding result is listed as “no binding (tested: ~1 µM)”. On the same count and under the same terms, as for B3, the entry is “no binding (tested: ~1 µM)”; as for B4, “no binding (tested: ~1 µM)”; as for B5, “no binding (tested: ~1 µM)”.

On to B6, for which the binding result was “no binding (tested: ~1 µM)”.

The target of another assay is T3, BoNT/F1 (proteolytic BoNT/F) (Clostridium botulinum, UniProt A7GBG3 1-1278).
T3 sequence: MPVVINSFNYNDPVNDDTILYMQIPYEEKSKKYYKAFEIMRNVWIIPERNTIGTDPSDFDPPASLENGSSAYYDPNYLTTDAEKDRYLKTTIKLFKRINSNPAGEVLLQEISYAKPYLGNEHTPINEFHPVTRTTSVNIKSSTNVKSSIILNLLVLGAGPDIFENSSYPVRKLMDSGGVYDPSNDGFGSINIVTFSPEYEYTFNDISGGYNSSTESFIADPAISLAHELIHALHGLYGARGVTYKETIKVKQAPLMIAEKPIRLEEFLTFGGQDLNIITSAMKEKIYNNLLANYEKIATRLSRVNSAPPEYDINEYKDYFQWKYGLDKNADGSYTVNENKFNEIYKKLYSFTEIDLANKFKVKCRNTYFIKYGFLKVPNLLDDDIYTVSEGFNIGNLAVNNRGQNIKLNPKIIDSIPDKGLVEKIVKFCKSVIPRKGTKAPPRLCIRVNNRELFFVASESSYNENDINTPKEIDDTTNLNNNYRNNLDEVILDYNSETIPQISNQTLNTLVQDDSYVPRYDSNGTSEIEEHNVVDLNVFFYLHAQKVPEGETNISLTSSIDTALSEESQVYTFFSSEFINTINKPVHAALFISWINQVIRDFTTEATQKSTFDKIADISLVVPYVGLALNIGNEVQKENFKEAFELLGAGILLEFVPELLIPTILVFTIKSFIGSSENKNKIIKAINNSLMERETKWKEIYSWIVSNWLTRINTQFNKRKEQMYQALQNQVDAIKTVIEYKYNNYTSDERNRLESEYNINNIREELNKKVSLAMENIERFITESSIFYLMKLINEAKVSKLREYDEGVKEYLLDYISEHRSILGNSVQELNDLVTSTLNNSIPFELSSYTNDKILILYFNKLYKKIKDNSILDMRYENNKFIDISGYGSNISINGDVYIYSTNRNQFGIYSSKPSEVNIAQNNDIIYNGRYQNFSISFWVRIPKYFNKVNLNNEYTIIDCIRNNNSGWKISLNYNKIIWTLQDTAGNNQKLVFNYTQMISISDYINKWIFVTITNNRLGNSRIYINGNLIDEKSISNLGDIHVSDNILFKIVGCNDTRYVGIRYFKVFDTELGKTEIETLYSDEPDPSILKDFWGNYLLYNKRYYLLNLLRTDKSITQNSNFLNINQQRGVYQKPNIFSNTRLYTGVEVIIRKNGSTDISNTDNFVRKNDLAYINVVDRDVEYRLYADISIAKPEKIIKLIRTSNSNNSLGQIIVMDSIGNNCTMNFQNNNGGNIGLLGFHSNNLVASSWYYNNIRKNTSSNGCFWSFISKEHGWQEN
As to the kind of experiment: IgG.
Consider B7, for which the dissociation constant (Kd) came out at 0.07 nM.

Molecule B8 showed a Kd of 0.26 nM. Compared with the last molecule, the Kd is about 3.7-fold higher.
